# B1: library; numbered along this chain (parent)
# chain: MAAAAAAAAEQQSSNGPVKKSMREKAVERRSVNKEHNSNFKAGYIPIDEDRLHKTGLRGRKGNLAICVIILLFILAVINLIITLVIWAVIRIGPNGCDSMEFHESGLLRFKQVSDMGVIHPLYKSTVGGRRNENLVITGNNQPIVFQQGTTKLSVENNKTSITSDIGMQFFDPRTQNILFSTDYETHEFHLPSGVKSLNVQKASTERITSNATSDLNIKVDGRAIVRGNEGVFIMGKTIEFHMGGNMELKAENSIILNGSVMVSTTRLPSSSSGDQLGSGDWVRYKLCMCADGTLFKVQVTSQNMGCQISDNPCGNTH
# Variants of: B1
# Assay: SGCB cell-surface expression functional score (HA stain, bin4 vs bin1, normalised to synonymous) (log10 ratio); higher = more cell-surface SGCB (functional)
# Method: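 Deep mutational scan of full-length human SGCB (YFP-SGCB-HA, NNN codon sublibraries A-F) delivered by lentivirus at low MOI into ADG-HEK293 cells stably expressing SGCA, SGCD and SGCG. YFP-positive cells were stained for surface HA on unpermeabilized cells and FACS-sorted into bins. The functional score is log10(frequency in high bin 4 / frequency in low bin 1), normalised per chunk so that synonymous variants have mean 0 and SD 0.5. Scores are the median over codons and over duplicate biological replicates; scores below -0.5 are called non-functional. Scale: negative means deleterious.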
row,Variant,SGCB cell-surface expression functional score (log10)
1,MAAAAAAAAEQQSSNGPVKKSMREKAVERRSVNKEHNSNFKAGYIPIDEDRLHKTGLRGRKGNLAICVIILLFILAVINLIITLVIWAVIRIGPNGCDSMEFHESGLLRFKQVSDMGVIHPLYKSTVGGRRNENLVITGNNQPIVFQQGTTKLSVENNKTSITSDIGMQFFDPRTQNILFSTDYETHEFHLPSGVKSLNVQKASTERITSNATSDLNIKVDGRAIVRGNEGVFIMGKTIEFHMGGNMELKAENSIILNGSVMVSTTRLPSSSSGDQLGSGDWVRYKLCMCADGTLFYVQVTSQNMGCQISDNPCGNTH [K297Y],-0.13
2,MAAAAAAAAEQQSSNGPVKKSMREKAVERRSVNKEHNSNFKAGYIPIDEDRLHKTGLRGRKGNLAICVIILLFILAVINLIITLVIWAVIRIGPNGCDSMEFHESGLLRFKQVSDMGVIHPLYKSTVGGRRNENLVITGNNQPIVFQQGTTKLSVENNKTSITSDIGMQFFDPRTQNILFSTDYETHEFHLPSGVKSLNVQKASTERITSNATSDLNIKVDGRAIVRGNEGVFIVGKTIEFHMGGNMELKAENSIILNGSVMVSTTRLPSSSSGDQLGSGDWVRYKLCMCADGTLFKVQVTSQNMGCQISDNPCGNTH [M235V],0.18
3,MAAAAAAAAEQQSSNGPVKKSMREKAVERRSVNKEHNSNFKAGYIKIDEDRLHKTGLRGRKGNLAICVIILLFILAVINLIITLVIWAVIRIGPNGCDSMEFHESGLLRFKQVSDMGVIHPLYKSTVGGRRNENLVITGNNQPIVFQQGTTKLSVENNKTSITSDIGMQFFDPRTQNILFSTDYETHEFHLPSGVKSLNVQKASTERITSNATSDLNIKVDGRAIVRGNEGVFIMGKTIEFHMGGNMELKAENSIILNGSVMVSTTRLPSSSSGDQLGSGDWVRYKLCMCADGTLFKVQVTSQNMGCQISDNPCGNTH [P46K],-0.07
4,MAAAAAAAAEQQSSNGPVKKSMREKAVERRSVNKEHNSNFKAGYIPIDEDRLHKTGLRGRKGNLAICVIILLFILAVINLIITLVIWAVIRIGPNGCDSMEFHESGLLRFKQVSDMGVIHPLYKSTVGGRRNENLVITGNNQPIVFQQGTTKLSVENNKTSITSDIGMQFFDPRTQNILFSTDYETHEFHLPSGVKSLNVQKASTERITSNATSDLNIKVDGRAIVRGNEGVFIMGKTIEFHMGGNMELKAENSIILNGSVMVSTTRLPSSSSGDQLGSGDWVRYKLCMCADGTLFKVQVTSQNMGCQISDNPCVNTH [G315V],-0.01
5,MAAAAAAAAEQQSSNGPVKKSMREKAVERRSVNKEHNSNFKAGYIPIDEDRLHKTGLRGRKGNLAICVIILLFILAVINLIITLVIWAVIRIGPNGCDSMEFHESGLLRFKQVSDMGVIHPLYKSTVGGRRNENLVITGNNQPIVFQQGTTKLSVENNKTSITSDIGMQFFDPRPQNILFSTDYETHEFHLPSGVKSLNVQKASTERITSNATSDLNIKVDGRAIVRGNEGVFIMGKTIEFHMGGNMELKAENSIILNGSVMVSTTRLPSSSSGDQLGSGDWVRYKLCMCADGTLFKVQVTSQNMGCQISDNPCGNTH [T175P],-1.3
6,MAAAAAAAAEQQSSNGPVKKSMREKAVERRSVNKEHNSNFKAGYIPIDEDRLHKTGLRGRKGNLAICVIILLFILAVINLIITLVIWAVIRIGPNGCDSMEFHESGLLRFKQVSDMGVIHPLYKSTVGGRRNENLVITGNNQPIVFQQGTTKLSVENNKTSITSDIGMQFFDPRTQNILFSTDYETHEFHLPSGVKGLNVQKASTERITSNATSDLNIKVDGRAIVRGNEGVFIMGKTIEFHMGGNMELKAENSIILNGSVMVSTTRLPSSSSGDQLGSGDWVRYKLCMCADGTLFKVQVTSQNMGCQISDNPCGNTH [S197G],-0.19
7,MAAAAAAAAEQQSSNGPVKKSMREKAVERRSVNKEHNSNFKAGYIPIDEDRLHKTGLRGRKGNLAICVIILLFILAVINLIITLVIWAVIRIGPNGCDSMEFHESGLLRFKQVSDMGRIHPLYKSTVGGRRNENLVITGNNQPIVFQQGTTKLSVENNKTSITSDIGMQFFDPRTQNILFSTDYETHEFHLPSGVKSLNVQKASTERITSNATSDLNIKVDGRAIVRGNEGVFIMGKTIEFHMGGNMELKAENSIILNGSVMVSTTRLPSSSSGDQLGSGDWVRYKLCMCADGTLFKVQVTSQNMGCQISDNPCGNTH [V118R],-0.19
8,MAAAAAAAAEQQSSNGPVKKSMREKAVERRSVNKEHNSNFKAGYIPIDEDYLHKTGLRGRKGNLAICVIILLFILAVINLIITLVIWAVIRIGPNGCDSMEFHESGLLRFKQVSDMGVIHPLYKSTVGGRRNENLVITGNNQPIVFQQGTTKLSVENNKTSITSDIGMQFFDPRTQNILFSTDYETHEFHLPSGVKSLNVQKASTERITSNATSDLNIKVDGRAIVRGNEGVFIMGKTIEFHMGGNMELKAENSIILNGSVMVSTTRLPSSSSGDQLGSGDWVRYKLCMCADGTLFKVQVTSQNMGCQISDNPCGNTH [R51Y],0.17
9,MAAAAAAAAEQQSSNGPVKKSMREKAVERRSVNKEHNSNFKAGYIPIDEDRLHKTGLRGRKGNLAICVIILLFILAVINLIITLVIWAVIRIGPNGCDSMEFHESGLLRFKQVSDMGVIHPLYKSTVGGRRNENLVITGNNQPIVFQQGTTKLSVENNKTSITSDIGMQFFDPRTQNILFSTDYETHEFHLPSGVKSLNVQKASTERITSNATSDLNIKVDGRAIVRGNEGVFIMGKTIEFHMGGNMELKAENSIILNGSVMVSTTRLPSSSSGDQQGSGDWVRYKLCMCADGTLFKVQVTSQNMGCQISDNPCGNTH [L277Q],-0.65
10,MAAAAAAAAEQQSSNGPVKKSMREKAVERRSVNKEHNSNFKAGYIPIDEDRLHKTGLRGRKGNLAICVIILLFILAVINLIITLVIWAVIRIGPNGCDSMEFHESGLLRFKQVSDMGVIHPLYKSTVGGRRNENLVITGNNQPIVFQQGTTKLSVENNKTSITSDIGMQFFDPRTQNILFSTDYETHEFHLPSGVKSLNVQKASTERITSNATSDLNIKVDGRAIVRGNEGVFIMGKTIEFHMGGNMELKAECSIILNGSVMVSTTRLPSSSSGDQLGSGDWVRYKLCMCADGTLFKVQVTSQNMGCQISDNPCGNTH [N253C],0.55

# — the supplement of paper PMC10266784
